Assay results reported in patent publication US7172865B2, “Rapid and sensitive assay for the detection and quantification of coregulators of nucleic acid binding factors” (Saint Louis University, priority 2001, dated 2007).
Entries after “also recorded” stand apart in the source; their conditions may differ.

How the values were obtained:
[1] = tested on: consensus CAP site split between CAP1/CAP4 and CAP2/CAP3 duplexes; test: CAP detection by fluorescence quenching, fluorescein/dabcyl-labeled half-site duplexes; format: binding, E. coli
From the text: A 38 bp DNA sequence corresponding to a consensus CAP site (Ebright, R. H., Ebright, Y. W. & Gunasakera, A. Nucleic Acids Res. 17, 10295–10305, 1989) was used as a basis for designing oligonucleotides necessary for preparing the CAP assay reagents according to the scheme illustrated in FIG. 1A. FIG. 3 illustrates the details of the design used. The following four oligonucleotides were synthesized using standard phosphoramidate automated oligonucleotide synthesis (F=dT-fluorescein; D=dT-dabcyl):
The fluorescence donor (fluorescein) and the fluorescence acceptor (dabcyl) were introduced into DNA fragments using commercially available dT-fluorescein and dT-dabcyl (Glen Research, Sterling, Va.) , wherein dT stands for deoxythymidine. […] The fractions containing the oligonucleotides were dried in a vacuum centrifuge concentrator and subsequently dissolved in 50 μl of water. […] The CAP1 oligonucleotide (SEQ ID NO:1) was hybridized with CAP4 oligonucleotide (SEQ ID NO:4) to generate the CAP1/CAP4 duplex and CAP2 oligonucleotide (SEQ ID NO:2) was hybridized with CAP3 oligonucleotide (SEQ ID NO:3) to generate the CAP2/CAP3 duplex. […] The excitation wavelength was at 490 nm and the emission was recorded from 500 to 650 nm.
FIG. 4B illustrates changes in fluorescence observed upon the addition of CAP protein. The spectrum of 50 nM of the CAP1/CAP4 duplex and 50 nM of the CAP2/CAP3 duplex was recorded (curve 1). CAP protein was added at 75 nM and after 15 minutes of incubation the spectrum was recorded (curve 2). A major quenching of fluorescence of approximately 50% of the control signal intensity was observed, which is consistent with the prediction that in the presence of CAP protein the association between the CAP1/CAP4 and CAP2/CAP3 duplexes is facilitated and that the fluorescein (fluorescent donor) present in the CAP2/CAP3 duplex is brought into close proximity to the dabcyl (fluorescent acceptor) present in the CAP1/CAP4 duplex, which results in the quenching of fluorescence emission due to FRET between the fluorescein and dabcyl.
FIG. 6 illustrates the change in fluorescence observed upon addition of increasing amounts of CAP protein in the assay. The experiments were performed under the same conditions as those for the experiment described above and in FIG. 4. Fluorescence quenching increased proportionally with the increase of CAP concentration until a saturation of the signal occurred at ˜150 nM protein.
The kinetics of CAP induced fluorescence quenching was also studied to determine the time required for completion of the assay (FIG. 7). […] At the time indicated by the arrow in FIG. 7, 100 nM CAP protein was added and monitoring of the fluorescence signal was resumed.

[2] = tested on: CAP6/CAP1 and CAP2/CAP3 nucleic acid duplexes; test: CAP assay with coumarin donor and fluorescein acceptor; format: binding, E. coli; details: 0 to 150 nM CAP, excitation 433 nm
From the text: Amino-Modifier C2 dT (Glen Research, Sterling, Va.) was incorporated into positions that are equivalent to the positions at which fluorescein-dT and dabcyl-dT has been used previously in CAP2 and CAP4 oligonucleotides, respectively. Amino-Modifier C2 dT contains a reactive aliphatic amino group that can be used to covalently attach any amino-reactive fluorescence probe. CAP5 (SEQ ID NO:7) and CAP6 (SEQ ID NO:8) oligonucleotides were modified with 7-diethylaminocoumarin-3-carboxylic acid, succinimidyl ester. This fluorochrome is excited at 433 nm and the maximum emission occurs at 475 nm providing the possibility of testing the assay with different emission colors. […]
In a second experiment (FIG. 9), the pair of CAP6/CAP1 and CAP2/CAP3 nucleic acid duplexes were tested for the performance in CAP assay. In this assay format, the 7-diethylaminocoumarin-3-carboxylic acid present in the CAP6/CAP1 duplex functioned as a fluorescence donor and the fluorescein present in the CAP2/CAP3 duplex functioned as an acceptor. […] Also, as shown in the inset of FIG. 9, the ratio between the fluorescence intensities at 520 nm and 475 nm may be used to determine the concentration of nucleic acid binding proteins. […]

[3] = target: CAP protein (Escherichia coli, UniProt P0ACJ8); details: in the absence of cAMP

B1: CAP: bacterial transcription activator from E. coli which binds DNA in a sequence specific, cAMP-dependent manner (protein, UniProt P0ACJ8 2-210, looked up)
DNA-binding transcriptional …: VLGKPQTDPTLEWFLSHCHIHKYPSKSTLIHQGEKAETLYYIVKGSVAVLIKDEEGKEMILSYLNQGDFIGELGLFEEGQERSAWVRAKTACEVAEISYKKFRQLIQVNPDILMRLSAQMARRLQVTSEKVGNLAFLDVTGRIAQTLLNLAKQPDAMTHPDGMQIKITRQEIGQIVGCSRETVGRILKMLEDQNLISAHGKTIVVYGTR
[1]; 50 nM duplexes
  protein concentration at saturation of the quenching signal: ~150 nM
[1]; 75 nM CAP, 15 minutes, 50 nM of each duplex, 200 μM cAMP
  quenching of fluorescence: approximately 50%
[1]; 100 nM CAP, emission 520 nm
  time for the reaction to go to completion: approximately 15 minutes
[1]; in the absence of cAMP
  change in fluorescence upon addition of CAP: No change in fluorescence; also recorded: does not produce a change in fluorescence signal intensity
[2]
  change of emission peaks: pronounced quenching of the peak at 475 nm and a pronounced enhancement of the peak at 520 nm
[3]
  CAP binding to the CAP1/CAP4 and CAP2/CAP3 DNA duplex: No detectable binding
